Entries after “also recorded” stand apart in the source; their conditions may differ.

Here are results for 2 molecules from US8202696B2, “Means for use in treating diseases correlated with or caused by non-physiological levels of microtubule-associated PP2Ac” (Max-Planck-Gessellschaft zur Forderung der Wissenschaften …, priority 2002, dated 2012).

Assay type in all cases: cell-based
The subject of experiment [1] is Gli3. The experiment is described as follows: Localization of GFP-GLI3 in cultured U373MG cells. To be noted: 24 hours after transfection, 100 cells counted. The protocol:
COS7-HELA- and U373MG-cells were transfected using PolyFect Transfection Reagent (Qiagen, cat. no. 301107) according to the manufacturer's instructions. Gli3 cDNA was cloned into pEGFP-C1 and pEGFP-N3 vectors (Clontech) respectively. 100 transfected cells per experiment (Gli3-GFP, GFP-Gli3, Gli3-GFP+myc-MID1, GFP-Gli3+myc-MID1, Gli3-GFP+myc-BBox1, GFP-Gli3+myc-BBox1) were counted and analysed for Gli3 localization. Experiments were repeated twice. […] PCMV-Tag3 vector from Stratagene was used for myc-MID1 and myc-BBox1 overexpression.

The test system of experiment [2] is PP2A. Nature of the experiment: Cytosolic PP2A in 293 cells expressing MID1-V5, Western blot. To be noted: 293 cells expressing MID1-V5 versus control cells. The protocol: Immunoprecipitation, western blotting and immunofluorescence. For COS7 cells, we lysed in IP1 buffer 8×10^6 cells transfected with pBudCE4 vector carrying the respective cDNAs. After preclearing the lysate with 50 μl protein A-agarose (slurry), we incubated supernatants with 2 μg anti-V5 overnight at 4° C. and then for 2 h with 75 μl (slurry) protein A-agarose. After three washes in IP1 buffer, we eluted the proteins with 1× Laemmli buffer at 95° C. MID1-V5 expression was optimal 48 h after doxycyclin removal from 293 tet-off cell lines. We then lysed cells in IP1 buffer and carried out immunoprecipitation with 2 μg anti-V5. We boiled proteins in 1×SDS-PAGE buffer, separated them on 10% and 12% SDS gels, blotted on PVDF membranes (Roche) and blocked and incubated with the respective primary antibody according to the manufacturer's instructions.
If so, increased MID1 expression should coincide with a decrease of cytosolic PP2A. To test this hypothesis, we analyzed lysates containing equal amounts of protein from 293 cells expressing MID1-V5 (FIG. 4a, lane1) and control cells (FIG. 4a, lane 3) by western blotting with a polyclonal antibody that detects the C subunit of PP2A.

Experiment [3] concerns PP2A. Nature of the experiment: Ubiquitin-dependent regulation of PP2A in embryonic fibroblasts, Western blot. Conditions: OS-derived cells. The protocol:
Tissue culture. We obtained embryonic fibroblasts from the Max-Planck Institute for Cell Biology (Ladenburg, Germany) and purchased COS7 cells from the American Type Culture Collection (ATCC). Establishment of an embryonic fibroblast cell line from an OS-affected fetus has been described previously^4. We transfected COS7 cells following the Clontech protocol using LipofectACE. Expression was optimal 24-48 h after transfection. […] We determined integration copy number by Southern blot analysis. […]
For proteasome inhibition, we incubated embryonic fibroblasts with varying concentrations (10-50 μM) of LLnL (Sigma) for 2 h or with 10 μM of lactacystin (Sigma) for 5 h. […] Protein concentrations were determined with a Bradford assay. […]
For embryonic fibroblasts, we lysed 8×10^6 cells in IP1 buffer. […] We carried out densitometric quantification using the PCB computer program.
To obtain direct evidence for ubiquitin-dependent regulation of cytosolic PP2A, we analyzed amounts of cytosolic PP2A in embryonic fibroblasts, previously shown to contain large amounts of endogenous MID1 (ref. 2), after treatment with the proteasome inhibitor LLnL (FIG. 4b).
On the technique in general: Immunoblotting shows a protein as a band on a membrane.

In experiment [4] the test system is Gli3. Nature of the experiment: Localization of overexpressed GFP-tagged Gli3 in HeLa cells. Conditions: GFP-tagged Gli3-overexpressing HeLa cells. The protocol: 1×10^5 HELA cells per well of a 6-well plate were transfected with Qiagen Polyfect transfection reagent according to the manufacturer's instructions. The ratio of the amount of DNA to the amount of polyfect transfection reagent was 3 μg DNA/10 μl Polyfect. Constructs used for expression in HELA were the following: GFP-GLI3 (aa 18-1549), GLI3-GFP (aa 1-1522), MYC-GLI3 (aa 18-1596), FLAG-GLI3 (aa18-1596), MYC-B-BOX1 (aa 110-167 of the MID1 protein), ALPHA4-V5 (aa 1-339). 24 h after transfection immunofluorescence was performed. GFP-constructs were treated as described in Schweiger et al., 1999. Immunofluorescence with MYC-tagged and FLAG-tagged constructs was done according to Trockenbacher et al., 2001. FLAG-tagged constructs were detected with anti-FLAG-antibody diluted 1:500, the secondary antibody FITC-antimouse was diluted 1:1000. For MYC-tagged constructs anti-MYC-antibody 1:300 and CY3-antirabbit 1:1000 were used. […]
Overexpressed Gli3 is predominantly localized in the nucleus (FIG. 10, top left).

The next experiment deals with patched gene. Nature of the experiment: Patched-specific semiquantitative RT-PCR of HeLa cells. To be noted: compared to mock-transfected cells. As for the experimental part: One of the most important targets of the Gli3 transcription factor is the patched gene. In order to analyse HeLa cells for Gli3 activity after treatment with the different molecules, semiquantitative RT-PCR of cells overexpressing the B-Box1 and the α4 protein was carried out (FIG. 13). HeLa cells have previously been tested for Gli3-, Gli1 (another target of the Gli3 transcription factor) and patched-expression.

B1: MID1: RING-finger protein that interacts with the α4 subunit of microtubule associated PP2Ac; overexpressed from cDNA (protein)
chain: METLESELTCPICLELFEDPLLLPCAHSLCFNCAHRILVSHCATNESVESITAFQCPTCRHVITLSQRGLDGLKRNVTLQNIIDRFQKASVSGPNSPSETRRERAFDANTMTSAEKVLCQFCDQDPAQDAVKTCVTCEVSYCDECLKATHPNKKPFTGHRLIEPIPDSHIRGLMCLEHEDEKVNMYCVTDDQLICALCKLVGRHRDHQVAALSERYDKLKQNLESNLTNLIKRNTELETLLAKLIQTCQHVEVNASRQEAKLTEECDLLIEIIQQRRQIIGTKIKEGKVMRLRKLAQQIANCKQCIERSASLISQAEHSLKENDHARFLQTAKNITERVSMATASSQVLIPEINLNDTFDTFALDFSREKKLLECLDYLTAPNPPTIREELCTASYDTITVHWTSDDEFSVVSYELQYTIFTGQANVVSLCNSADSWMIVPNIKQNHYTVHGLQSGTKYIFMVKAINQAGSRSSEPGKLKTNSQPFKLDPKSAHRKLKVSHDNLTVERDESSSKKSHTPERFTSQGSYGVAGNVFIDSGRHYWEVVISGSTWYAIGLAYKSAPKHEWIGKNSASWALCRCNNNWVVRHNSKEIPIEPAPHLRRVGILLDYDNGSIAFYDALNSIHLYTFDVAFAQPVCPTFTVWNKCLTIITGLPIPDHLDCTEQLP
modifications: left off: large carriers
notes: overexpressed from cDNA
As for B1, the GFP-GLI3 localization result with Gli3 [1] is recorded as “No change”. Further, the “Cytosolic phosphatase 2A level” value in the experiment with PP2A [2] was “downregulated”. For the same molecule, the “PP2Ac amount after transfection” value in the experiment on PP2A [3] is on record as “normalizes the amount of PP2Ac”.

B2: α4: regulatory subunit of PP2A encoded by human IGBP1, overexpressed (protein, UniProt P78318 2-339, looked up)
Immunoglobulin-binding …: AAEDELQLPRLPELFETGRQLLDEVEVATEPAGSRIVQEKVFKGLDLLEKAAEMLSQLDLFSRNEDLEEIASTDLKYLLVPAFQGALTMKQVNPSKRLDHLQRAREHFINYLTQCHCYHVAEFELPKTMNNSAENHTANSSMAYPSLVAMASQRQAKIQRYKQKKELEHRLSAMKSAVESGQADDERVREYYLLHLQRWIDISLEEIESIDQEIKILRERDSSREASTSNSSRQERPPVKPFILTRNMAQAKVFGAGYPSLPTMTVSDWYEQHRKYGALPDQGIAKAAPEEFRKAAQQQEEQEEKEEEDDEQTLHRAREWDDWKDTHPRGYGNRQNMG
modifications: V5 tag
notes: regulatory subunit of PP2A encoded by human IGBP1, overexpressed
B2: the Gli3 localization result in the experiment with Gli3 [4] was “significant release of GFP-Gli3 to the nucleus”. Also, in the experiment with patched gene, the patched message result is on record as “increased amount of PCR-product; also recorded: increase of the patched message”.
